Reference: patent publication US20130156764A1, “NEUTRALIZATION OF FLT3 LIGAND AS A LEUKEMIA THERAPY” (The Johns Hopkins University, priority 2010, published 2013)

Experiments:
[1] = system: FLT3/ITD and FLT3/TKD in TF1 cells; experiment: FL stimulation, FLT3 phosphorylation in TF1/ITD and TF1/TKD cells; format: cell-based; conditions: FL 15 minutes after serum starvation
Experimental: TF1 and BaF3 cells were transfected with pCINeo constructs containing either FLT3/ITD or FLT3/TKD mutation by electroporation (Bio-Rad, Hercules, Calif.). Stable transfectants were then selected by limiting dilution in 96-well plates with 1 mg/mL G418 (Invitrogen, Carlsbad, Calif.).
The possibility of further activation of FLT3 mutant receptors by exogenous FL was also tested in cell lines in which FL autocrine, paracrine, or intracrine stimulation of FLT3 receptor might exist. […] TF1 cells expressing FLT3 mutant receptors were starved for 16 hours in serum-free medium and washed once with PBS to deplete soluble FL (either produced by the cells or contained in the serum). These cells were then stimulated with exogenous FL for 15 minutes. More than 2-fold enhancement of FLT3 phosphorylation was detected in both TF1/ITD and TF1/TKD cell lines (FIG. 12A). […] To assess the functional effect of exogenous FL, TF1/ITD and TF1/TKD cells were cultured in serum-free medium in the absence and presence of FL for 48 hours. Apoptosis was assessed by Annexin V and 7AAD staining followed by FACS analysis. […] There was no change of cell cycle status in response to FL in these cells (data not shown).

[2] = system: FLT3 (wt, ITD, TKD) in FL−/− MEF cells; experiment: FL stimulation, FLT3 phosphorylation in FL−/− MEF cells expressing wtFLT3, FLT3/ITD, FLT3/TKD; format: cell-based, mice
Experimental: Embryos were removed from female FL^−/− mice (purchased from Taconic, Hudson, N.Y.) on day 13 or 14 of pregnancy. Internal organs and heads were removed. The remainder of the embryos were washed, minced, digested with Trypsin/EDTA, and then resuspended in DMEM containing 10% FBS followed by centrifuging at 1000×g for 5 minutes. The cell pellet was resuspended in DMEM containing 10% FBS and cultured at 37° C. with 5% CO2. After 3 passages, the cells were transfected with CMV-SV40-large T antigen to immortalize FL^−/− MEF cells. The FL^−/− MEF cells represent bulk cells after transformation.
Retrovirus was obtained by harvesting supernatant 48 hours after transfection of 293T cells with pBabePuro constructs. […]
To eliminate the complicating factor of autocrine, paracrine, and intracrine FL expression on mutant FLT3 activation, FL^−/− MEF cells were established from FL^−/− mice. […] The addition of FL induced more than a 4-fold increase in FLT3 phosphorylation in FL^−/− MEF-FLT3, FL^−/− MEF-ITD, and FL^−/− MEF-TKD cells (quantitated by GS-800 Calibrated Densitometer (Bio-Rad) and Quantity One software (Bio-Rad)) (FIG. 10B, lanes 4, 6, and 8 versus lanes 3, 5, and 7). […]
The effect of endogenous FL expression on the activation of FLT3/ITD and FLT3/TKD mutant receptors were next examined. […] The expression of FL was assessed by the detection of the secreted form of FL in the cell culture supernatant. […]

[3] = system: MAPK phosphorylation; experiment: FL stimulation, MAPK phosphorylation in primary AML blasts with homozygous FLT3/ITD; format: cell-based, human; conditions: 100 ng/mL FL
Experimental: (§1) To study whether further activation of mutant FLT3 receptors in response to FL also occurs in primary cells, experiments were carried on primary AML blasts expressing homozygous FLT3/ITD mutations (i.e., no detectable wild type FLT3 by PCR). The blasts were stimulated with 100 ng/mL FL. […] The survival of AML blasts was assessed by culturing them in complete medium with and without FL for 4 days.

[4] = system: BaF3/ITD and BaF3/TKD cells; experiment: Survival (MTT, trypan blue) of BaF3/ITD and BaF3/TKD cells with FL; format: cell-based; conditions: serum-free, 4 days
Experimental: (§2) 2×10^4 cells in 100 μl serum-free medium were plated into triplicate wells of 96-well plates. Survival was assessed by MTT assay (Roche, Indianapolis, Ind.) and viable cell number counting by trypan blue (GIBCO, Rockville, Md.) exclusion according to the manufacturer's instructions.
BaF3 is another cell line lacking expression of endogenous FLT3. BaF3 cells transfected with mutant forms of FLT3 were starved in serum-free medium for 16 hours and washed with PBS before FL stimulation. […] Changes of other FLT3 downstream signals were not observed. An MTT survival assay was performed in BaF3/ITD and BaF3/TKD cells cultured in serum-free medium in the presence and absence of FL for 4 days. […] The effect was also confirmed by counting viable cell numbers by trypan blue exclusion (FIG. 13C, P<0.05). These findings indicate that FL stimulation prolongs the survival of cells expressing FLT3 mutants.

[5] = system: primary AML blasts expressing homozygous FLT3/ITD mutations; experiment: Survival (MTT) of primary AML blasts with FL; format: cell-based, human; conditions: complete medium, 4 days
Experimental: as §2, §1

B1: FL: Recombinant human FL (fms-related tyrosine kinase ligand) purchased from PeproTech; SEQ ID NO: 1 (protein, listed as Homo sapiens)
chain: MTVLAPAWSPTTYLLLLLLLSSGLSGTQDCSFQHSPISSDFAVKIRELSDYLLQDYPVTVASNLQDEELCGGLWRLVLAQRWMERLKTVAGSKMQGLLERVNTEIHFVTKCAFQPPPSCLRFVQTNISRLLQETSEQLVALKPWITRQNFSRCLELQCQPDSSTLPPPWSPRPLEATAPTAPQPPLLLLLLLPVGLLLLAAAWCLHWQRTRRRTPRPGEQVPPVPSPQDLLLVEH
enhancement of FLT3 phosphorylation [1]: More than 2 fold | increase in FLT3 phosphorylation ([2]; FL−/− MEF-FLT3, MEF-ITD and MEF-TKD cells, serum-free, FL 100 ng/mL 15 minutes): > 4 fold | FLT3 phosphorylation in cells expressing endogenous FL ([2]; exogenous FL 100 ng/mL, MEF-FLT3, MEF-ITD, MEF-TKD cells stably expressing FL): did not further augment | samples with increased MAPK phosphorylation [3]: two out of four samples | survival (MTT, confirmed by trypan blue) [4]: increased survival | patient samples with increased survival of AML blasts [5]: three of four
